Test results reported in the supplement of paper PMC9112550, “Optimization of the antimicrobial peptide Bac7 by deep mutational scanning” (BMC Biology, 2022).
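Also: peptides expressed intracellularly from a pBAD plasmid library in pooled LB shake-flask culture, induced with 0.3% L-arabinose, DNA abundance read by NGS, three biological replicates, DESeq2 with apeglm shrinkage.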

Each sequence was assayed on Escherichia coli TOP10 (assay: shrunken log2 fold change of peptide-encoding DNA abundance (4.5 h post-induction vs induction); higher = less antimicrobial activity (less host growth inhibition)). Conditions: time post-induction: 4.5 h; library: site-saturation at positions 5, 18, 19, 20.
For RRIRERPPRLPRPRPRPKAVPRP, the “shrunken log2 fold change” value was 0.0311. In the case of RRIRWRPPRLPRPRPRPCCLPRP, the “shrunken log2 fold change” value is reported as 0.00932. With RRIRARPPRLPRPRPRPFYGPRP the “shrunken log2 fold change” value was -0.0165. In the case of RRIRFRPPRLPRPRPRPRLVPRP, the “shrunken log2 fold change” value is reported as 0.207. With RRIRNRPPRLPRPRPRPSNMPRP the “shrunken log2 fold change” value was -0.429. RRIRFRPPRLPRPRPRPDSHPRP was tested, and the “shrunken log2 fold change” value was -0.495. For RRIRPRPPRLPRPRPRPGRRPRP, the “shrunken log2 fold change” value was 0.123. For RRIRARPPRLPRPRPRPQYCPRP, the “shrunken log2 fold change” value was -0.0903. RRIRRRPPRLPRPRPRPDETPRP was tested, and the “shrunken log2 fold change” value was 0.745. For RRIRERPPRLPRPRPRPQIIPRP, the “shrunken log2 fold change” value was -1.12. RRIRIRPPRLPRPRPRPKAHPRP was tested, and the “shrunken log2 fold change” value was -0.242. With RRIRYRPPRLPRPRPRPGHRPRP the “shrunken log2 fold change” value was 0.0683. With RRIRARPPRLPRPRPRPKSEPRP the “shrunken log2 fold change” value was 1.22. RRIRTRPPRLPRPRPRPVDRPRP was tested, and the “shrunken log2 fold change” value was 0.141. For RRIRWRPPRLPRPRPRPAFNPRP, the “shrunken log2 fold change” value was -0.116. In the case of RRIRRRPPRLPRPRPRPGELPRP, the “shrunken log2 fold change” value is reported as 0.12. For RRIRWRPPRLPRPRPRPWNYPRP, the “shrunken log2 fold change” value was -0.98. With RRIRTRPPRLPRPRPRPDCRPRP the “shrunken log2 fold change” value was 0.106. RRIRPRPPRLPRPRPRPCFQPRP was tested, and the “shrunken log2 fold change” value was -0.0314. In the case of RRIRTRPPRLPRPRPRPVPAPRP, the “shrunken log2 fold change” value is reported as 0.35. For RRIRFRPPRLPRPRPRPPCGPRP, the “shrunken log2 fold change” value was 0.362. RRIRLRPPRLPRPRPRPRQQPRP was tested, and the “shrunken log2 fold change” value was 0.319. RRIRGRPPRLPRPRPRPMEEPRP was tested, and the “shrunken log2 fold change” value was 0.48. In the case of RRIRTRPPRLPRPRPRPYDPPRP, the “shrunken log2 fold change” value is reported as -0.0474. In the case of RRIRGRPPRLPRPRPRPTFRPRP, the “shrunken log2 fold change” value is reported as -0.135. RRIRIRPPRLPRPRPRPKWNPRP was tested, and the “shrunken log2 fold change” value was -0.454. In the case of RRIRIRPPRLPRPRPRPWGEPRP, the “shrunken log2 fold change” value is reported as -0.0259. In the case of RRIRNRPPRLPRPRPRPHEQPRP, the “shrunken log2 fold change” value is reported as -0.066. In the case of RRIRARPPRLPRPRPRPPKNPRP, the “shrunken log2 fold change” value is reported as 0.562. RRIRWRPPRLPRPRPRPAHLPRP was tested, and the “shrunken log2 fold change” value was 0.15. With RRIRQRPPRLPRPRPRPKHWPRP the “shrunken log2 fold change” value was 0.0984. In the case of RRIRERPPRLPRPRPRPSGLPRP, the “shrunken log2 fold change” value is reported as -0.195. With RRIRQRPPRLPRPRPRPNAYPRP the “shrunken log2 fold change” value was -0.279. In the case of RRIRRRPPRLPRPRPRPGNLPRP, the “shrunken log2 fold change” value is reported as 0.0367. For RRIRERPPRLPRPRPRPTILPRP, the “shrunken log2 fold change” value was -0.0814. In the case of RRIRQRPPRLPRPRPRPEGGPRP, the “shrunken log2 fold change” value is reported as 0.161. With RRIRYRPPRLPRPRPRPDNVPRP the “shrunken log2 fold change” value was -0.0165. For RRIRMRPPRLPRPRPRPKVIPRP, the “shrunken log2 fold change” value was -0.259. For RRIRIRPPRLPRPRPRPDHGPRP, the “shrunken log2 fold change” value was 0.0143. For RRIRCRPPRLPRPRPRPNLWPRP, the “shrunken log2 fold change” value was 0.00489. RRIRMRPPRLPRPRPRPYHDPRP was tested, and the “shrunken log2 fold change” value was -0.256. In the case of RRIRFRPPRLPRPRPRPAGKPRP, the “shrunken log2 fold change” value is reported as 0.279. RRIRNRPPRLPRPRPRPKFEPRP was tested, and the “shrunken log2 fold change” value was 0.0146. For RRIRTRPPRLPRPRPRPNAYPRP, the “shrunken log2 fold change” value was -0.195. RRIRSRPPRLPRPRPRPRPHPRP was tested, and the “shrunken log2 fold change” value was 0.151. In the case of RRIRRRPPRLPRPRPRPCCRPRP, the “shrunken log2 fold change” value is reported as 0.197. With RRIRKRPPRLPRPRPRPSFHPRP the “shrunken log2 fold change” value was -0.219. In the case of RRIRQRPPRLPRPRPRPKYTPRP, the “shrunken log2 fold change” value is reported as -0.776. For RRIRGRPPRLPRPRPRPDTSPRP, the “shrunken log2 fold change” value was 0.383. In the case of RRIRMRPPRLPRPRPRPVDRPRP, the “shrunken log2 fold change” value is reported as 0.278. In the case of RRIRARPPRLPRPRPRPCRIPRP, the “shrunken log2 fold change” value is reported as -0.0344. For RRIRQRPPRLPRPRPRPGGFPRP, the “shrunken log2 fold change” value was 0.0441. RRIRKRPPRLPRPRPRPLTPPRP was tested, and the “shrunken log2 fold change” value was 0.658. For RRIRIRPPRLPRPRPRPQNPPRP, the “shrunken log2 fold change” value was -0.38. For RRIRGRPPRLPRPRPRPERCPRP, the “shrunken log2 fold change” value was 0.203. For RRIRMRPPRLPRPRPRPNVEPRP, the “shrunken log2 fold change” value was 0.0231. RRIRARPPRLPRPRPRPYIQPRP was tested, and the “shrunken log2 fold change” value was -0.873. In the case of RRIRFRPPRLPRPRPRPPPCPRP, the “shrunken log2 fold change” value is reported as 0.898. RRIRVRPPRLPRPRPRPFSRPRP was tested, and the “shrunken log2 fold change” value was -0.0787. RRIRSRPPRLPRPRPRPDSEPRP was tested, and the “shrunken log2 fold change” value was 0.139. For RRIRMRPPRLPRPRPRPARMPRP, the “shrunken log2 fold change” value was 0.888. RRIRDRPPRLPRPRPRPSQIPRP was tested, and the “shrunken log2 fold change” value was 0.016. In the case of RRIRRRPPRLPRPRPRPIHEPRP, the “shrunken log2 fold change” value is reported as 0.086. RRIRERPPRLPRPRPRPHQEPRP was tested, and the “shrunken log2 fold change” value was 0.0187. With RRIRARPPRLPRPRPRPSYTPRP the “shrunken log2 fold change” value was 1.56. For RRIRGRPPRLPRPRPRPENEPRP, the “shrunken log2 fold change” value was 0.686. With RRIRCRPPRLPRPRPRPVKTPRP the “shrunken log2 fold change” value was -0.132. For RRIRQRPPRLPRPRPRPVRIPRP, the “shrunken log2 fold change” value was -0.0391. For RRIRPRPPRLPRPRPRPDELPRP, the “shrunken log2 fold change” value was -0.0607. In the case of RRIRDRPPRLPRPRPRPPKVPRP, the “shrunken log2 fold change” value is reported as 0.387. With RRIRYRPPRLPRPRPRPKPEPRP the “shrunken log2 fold change” value was -0.0857. For RRIRTRPPRLPRPRPRPKNQPRP, the “shrunken log2 fold change” value was -0.274. RRIRKRPPRLPRPRPRPSIPPRP was tested, and the “shrunken log2 fold change” value was -1.13. For RRIRNRPPRLPRPRPRPCNCPRP, the “shrunken log2 fold change” value was -0.00865. RRIRGRPPRLPRPRPRPSHGPRP was tested, and the “shrunken log2 fold change” value was 0.487.
